From patent US20220089647A1 (FUJIFILM, published 2022)
Starred links: 1 amine or outer side, 2 acyl side, 3 side chain; linkers in the order of their positions; H or OH if unused. Positions of bridges follow the written chain, without caps; N, C: chain ends. Non-standard residues stand in square brackets, D forms with d. No end group written: not given here. Dab(acetyl) = 2-amino-4-acetylamino-butanoic acid residue (N-γ-acetyl-diaminobutyric acid), CC(=O)NCC[C@H](N[*:1])C(=O)[*:2]; COCH2 = acetyl group that carries the bridge; hCys = N[C@@H](CCS)C(=O)O; Dab = NCC[C@H](N)C(=O)O; Dap = NC[C@H](N)C(=O)O

Molecular target: T1, human integrin αvβ5 (human, UniProt P06756 31-992; P18084 24-719, limits assumed)
T1 construct: Heterodimer flowed as analyte at 30, 100, 300 and 1,000 nM in HEPES buffer with 5 mM MgCl2
T1 sequence (P06756 31-992 limits assumed, chain 1 of 2): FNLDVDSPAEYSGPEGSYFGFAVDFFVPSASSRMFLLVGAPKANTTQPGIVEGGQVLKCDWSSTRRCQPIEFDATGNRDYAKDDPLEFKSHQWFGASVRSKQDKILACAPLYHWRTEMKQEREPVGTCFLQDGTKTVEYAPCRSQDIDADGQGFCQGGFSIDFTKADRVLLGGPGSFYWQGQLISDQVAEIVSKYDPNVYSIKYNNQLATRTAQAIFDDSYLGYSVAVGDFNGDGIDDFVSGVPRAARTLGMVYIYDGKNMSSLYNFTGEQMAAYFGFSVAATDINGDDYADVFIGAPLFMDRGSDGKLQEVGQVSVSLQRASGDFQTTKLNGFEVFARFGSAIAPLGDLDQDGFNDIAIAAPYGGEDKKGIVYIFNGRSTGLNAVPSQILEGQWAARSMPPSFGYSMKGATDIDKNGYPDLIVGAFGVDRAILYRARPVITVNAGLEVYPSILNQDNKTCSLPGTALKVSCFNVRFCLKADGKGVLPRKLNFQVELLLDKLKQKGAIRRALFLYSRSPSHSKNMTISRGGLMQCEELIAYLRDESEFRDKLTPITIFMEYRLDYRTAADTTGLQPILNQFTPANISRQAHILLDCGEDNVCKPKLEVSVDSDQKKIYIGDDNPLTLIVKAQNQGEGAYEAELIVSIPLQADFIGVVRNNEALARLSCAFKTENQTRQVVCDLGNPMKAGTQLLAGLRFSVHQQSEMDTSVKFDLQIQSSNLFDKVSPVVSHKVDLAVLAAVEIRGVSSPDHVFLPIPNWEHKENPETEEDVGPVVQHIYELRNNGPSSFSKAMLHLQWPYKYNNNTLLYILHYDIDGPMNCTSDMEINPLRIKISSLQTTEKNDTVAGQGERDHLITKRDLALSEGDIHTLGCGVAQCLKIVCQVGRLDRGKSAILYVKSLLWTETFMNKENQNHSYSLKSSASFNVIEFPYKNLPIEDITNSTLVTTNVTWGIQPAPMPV
T1 sequence (P18084 24-719 limits assumed, chain 2 of 2): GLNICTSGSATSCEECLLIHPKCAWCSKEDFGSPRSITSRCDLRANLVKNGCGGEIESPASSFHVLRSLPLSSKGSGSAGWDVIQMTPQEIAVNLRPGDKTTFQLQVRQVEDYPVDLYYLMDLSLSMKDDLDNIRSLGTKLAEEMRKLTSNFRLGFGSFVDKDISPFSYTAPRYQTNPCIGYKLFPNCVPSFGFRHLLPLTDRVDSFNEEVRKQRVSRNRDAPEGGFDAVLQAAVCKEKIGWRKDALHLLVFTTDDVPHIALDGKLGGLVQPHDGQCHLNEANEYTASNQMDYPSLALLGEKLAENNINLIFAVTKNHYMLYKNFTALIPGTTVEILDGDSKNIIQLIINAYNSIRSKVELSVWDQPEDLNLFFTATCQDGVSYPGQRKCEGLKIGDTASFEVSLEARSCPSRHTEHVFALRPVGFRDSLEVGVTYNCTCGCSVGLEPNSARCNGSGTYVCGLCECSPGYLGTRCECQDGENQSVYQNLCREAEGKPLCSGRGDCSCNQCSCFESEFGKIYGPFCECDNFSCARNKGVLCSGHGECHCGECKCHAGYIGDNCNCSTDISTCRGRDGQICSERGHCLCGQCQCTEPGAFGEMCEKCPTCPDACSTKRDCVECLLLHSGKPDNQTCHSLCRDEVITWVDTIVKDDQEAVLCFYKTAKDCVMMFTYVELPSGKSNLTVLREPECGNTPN
Test: SPR, Biacore 3000, peptide immobilised; B = KD more than 50 nM and 100 nM or less

Binder	dissociation constant (KD) [nM]
KKK[hCys]VPRGDTFT[Dab(acetyl)] (thioether 4-13) [Cyclic peptide 154]	50 to 100
KKK[hCys]TPRGDSFA[Dab(acetyl)] (thioether 4-13) [Cyclic peptide 156]	50 to 100

Now from value to binder:

dissociation constant (KD) [nM]	Binder
50 to 100	KKK[Dap](COCH2)EPRGDNYRC (thioether 4-13) [Cyclic peptide 167]
50 to 100	KKKA[hCys]TTRGDSFA[Dab](COCH2)A (thioether 5-14) [Cyclic peptide 161]
